The source of these data is publication PMC3084833.

Test [1] addresses ΔCT-PxxP bestrophin-1 (human bestrophin-1 lacking the C-terminal proline-rich region between 462 and 575) (human) (UniProt O76090). As to the kind of experiment: co-IP; HEK-293 cells co-transfected with wild-type or ΔCTPxxP bestrophin-1 and β3- or His-tagged β4-subunits; IP with anti-bestrophin-1 antibody, blot anti-β3, or IP with anti-His antibody, blot anti-bestrophin-1; relative co-precipitation efficiency by densitometry of lysate, precipitate and non-bound fraction.

The target of test [2] is calcium channel, voltage-dependent, β4-subunit, His6-tagged (rat, β4-pCDNA3) (Rattus norvegicus) (UniProt D4A055). The test is described as above.

In test [1], “calcium channel, voltage-dependent, β3-subunit (rat, untagged, β3-pCMV) (from UniProt P54287 1-484) (natural protein)” had a co-precipitation efficiency of 4%.
Regarding “ΔCT-PxxP bestrophin-1 (human bestrophin-1 lacking the C-terminal proline-rich region between 462 and 575) (from UniProt O76090-1 1-585) (natural protein)”, in test [2], the co-precipitation efficiency worked out at 4%.
